According to the supplement of paper PMC10567573:

B1: HESX1 (parent)
chain: ENKPSTCSFSIERILGLDQKKDCV

Variants of: B1
Assay: protein stability index of a GFP-peptide fusion (GPS, HEK-293T) (PSI 1-6); higher = more stable
Conditions: c terminus: a fixed tail appended
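Note: lentivirally expressed fusions sorted by FACS into six bins by GFP to DsRed ratio, PSI derived from sequencing read proportions per bin multiplied by bin number.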

In order of falling protein stability index:
1. ENKPSTCSFSIERILGPDQKKDCV [L17P]  4.69
2. ENKPSTCSFSIERILGNDQKKDCV [L17N]  4.42
3. ENKPSTCSFSIERILGDDQKKDCV [L17D]  4.4
4. ENKPSTCSFSIERILGLDQKKDDV [C23D]  4.38
5. ENKPSTCSFSIERILGEDQKKDCV [L17E]  4.25
6. ENKPSTCSFSIERILGVDQKKDCV [L17V]  4.2
7. ENKPSTCSFSIERILGKDQKKDCV [L17K]  4.04
8. ENKPSTCSFSIERILGADQKKDCV [L17A]  4
9. ENKPSTCSFSIERILGLDQKKDRV [C23R]  3.92
10. ENKPSTCSFSIERILGSDQKKDCV [L17S]  3.86
11. ENKPSTCSFSIERILGGDQKKDCV [L17G]  3.83
12. ENKPSTCSFSIERILGTDQKKDCV [L17T]  3.78
13. ENKPSTCSFSIERILGLDQKKDAV [C23A]  3.64
14. ENKPSTCSFSIERILGLDQKKDEV [C23E]  3.6
15. ENKPSTCSFSIERILGQDQKKDCV [L17Q]  3.59
16. ENKPSTCSFSIERILGLDQKKDGV [C23G]  3.56
17. ENKPSTCSFSIERILGHDQKKDCV [L17H]  3.53
18. ENKPSTCSFSIERILGLDQKKDSV [C23S]  3.45
19. ENKPSTCSFSIERILGLDQKKDQV [C23Q]  3.42
20. ENKPSTCSFSIERILGLDQKKDVV [C23V]  3.41
21. ENKPSTCSFSIERILGLDQKKDKV [C23K]  3.41
22. ENKPSTCSFSIERILGLEQKKDCV [D18E]  3.4
23. ENKPSTCSFSIERILGLDQKEDCV [K21E]  3.4
24. ENKPSTCSFSIERILGLDDKKDCV [Q19D]  3.34
25. ENKPSTCSFSIERILGLDQKKDHV [C23H]  3.33
26. ENKPSTCSFSIERILGIDQKKDCV [L17I]  3.31
27. ENKPSTCSFSIERILGLDQKKDPV [C23P]  3.29
28. ENKPSTCSFSIERILGLDQKKDNV [C23N]  3.23
29. ENKPSTCSFSIERILGLDEKKDCV [Q19E]  3.23
30. ENKPSTCSFSIERILGCDQKKDCV [L17C]  3.22
31. ENKPSTCSFSIERILGLDRKKDCV [Q19R]  3.2
32. ENKPSTCSFSIERILGLDQKTDCV [K21T]  3.19
33. ENKPSTCSFSIERILGLDQKKDTV [C23T]  3.16
34. ENKPSTCSFSIERILGLDQKDDCV [K21D]  3.16
35. ENKPSTCSFSIERILVLDQKKDCV [G16V]  3.15
36. ENKPSTCSFSIERILGLDPKKDCV [Q19P]  3.14
37. ENKPSTCSFSIERILGLSQKKDCV [D18S]  3.13
38. ENKPSTCSFSIERILGLDGKKDCV [Q19G]  3.06
39. ENKPSTCSFSIERILGLHQKKDCV [D18H]  3
40. ENKPSTCSFSIERILGLDQKSDCV [K21S]  2.95
41. ENKPSTCSFSIERILGLAQKKDCV [D18A]  2.94
42. ENKPSTCSFSIERILGLDKKKDCV [Q19K]  2.94
43. ENKPSTCSFSIERILGLDQKQDCV [K21Q]  2.93
44. ENKPSTCSFSIERILGLDQKKDIV [C23I]  2.91
45. ENKPSTCSFSIERILGFDQKKDCV [L17F]  2.91
46. ENKPSTCSFSIERILGLQQKKDCV [D18Q]  2.89
47. ENKPSTCSFSIERILGLDTKKDCV [Q19T]  2.88
48. ENKPSTCSFSIERILGLDQKGDCV [K21G]  2.86
49. ENKPSTCSFSIERILGLCQKKDCV [D18C]  2.85
50. ENKPSTCSFSIERILGLDQKKDMV [C23M]  2.83
51. ENKPSTCSFSIERILGWDQKKDCV [L17W]  2.82
52. ENKPSTCSFSIERILGLKQKKDCV [D18K]  2.79
53. ENKPSTCSFSIERILGLDSKKDCV [Q19S]  2.79
54. ENKPSTCSFSIERILGLTQKKDCV [D18T]  2.77
55. ENKPSTCSFSIERILGLRQKKDCV [D18R]  2.76
56. ENKPSTCSFSIERILGLPQKKDCV [D18P]  2.71
57. ENKPSTCSFSIERILGLDVKKDCV [Q19V]  2.71
58. ENKPSTCSFSIERILGLDQKKDLV [C23L]  2.7
59. ENKPSTCSFSIERILGLDCKKDCV [Q19C]  2.67
60. ENKPSTCSFSIERILGLDQKPDCV [K21P]  2.67
61. ENKPSTCSFSIERILGLDNKKDCV [Q19N]  2.64
62. ENKPSTCSFSIERILGLNQKKDCV [D18N]  2.62
63. ENKPSTCSFSIERILGLDQKKDFV [C23F]  2.62
64. ENKPSTCSFSIERILGLDLKKDCV [Q19L]  2.62
65. ENKPSTCSFSIERILGLDQKRDCV [K21R]  2.62
66. ENKPSTCSFSIERILGLDQKNDCV [K21N]  2.62
67. ENKPSTCSFSIERILGLDMKKDCV [Q19M]  2.6
68. ENKPSTCSFSIERILGYDQKKDCV [L17Y]  2.56
69. ENKPSTCSFSIERILGLGQKKDCV [D18G]  2.55
70. ENKPSTCSFSIERILGLDQKVDCV [K21V]  2.54
71. ENKPSTCSFSIERILGLDHKKDCV [Q19H]  2.47
72. ENKPSTCSFSIERILGLDQKKDYV [C23Y]  2.46
73. ENKPSTCSFSIERILGLDQKADCV [K21A]  2.41
74. ENKPSTCSFSIERILGLDIKKDCV [Q19I]  2.39
75. ENKPSTCSFSIERILGLDQKHDCV [K21H]  2.35
76. ENKPSTCSFSIERILGLDQKFDCV [K21F]  2.35
77. ENKPSTCSFSIERILGLDAKKDCV [Q19A]  2.33
78. ENKPSTCSFSIERILGLWQKKDCV [D18W]  2.32
79. ENKPSTCSFSIERILGLDQKLDCV [K21L]  2.27
80. ENKPSTCSFSIERILGLMQKKDCV [D18M]  2.23
81. ENKPSTCSFSIERILGLYQKKDCV [D18Y]  2.14
82. ENKPSTCSFSIERILGLLQKKDCV [D18L]  2.12
83. ENKPSTCSFSIERILGLDFKKDCV [Q19F]  2.12
84. ENKPSTCSFSIERILGMDQKKDCV [L17M]  2.11
85. ENKPSTCSFSIERILGLDQKCDCV [K21C]  2.11
86. ENKPSTCSFSIERILGLDQKMDCV [K21M]  2.05
87. ENKPSTCSFSIERILGLDYKKDCV [Q19Y]  1.97
88. ENKPSTCSFSIERILGLDQKIDCV [K21I]  1.9
89. ENKPSTCSFSIERILGLDQKWDCV [K21W]  1.86
90. ENKPSTCSFSIERILGLFQKKDCV [D18F]  1.85
91. ENKPSTCSFSIERILGLVQKKDCV [D18V]  1.8
92. ENKPSTCSFSIERILGLIQKKDCV [D18I]  1.74
93. ENKPSTCSFSIERILGLDQKYDCV [K21Y]  1.67
94. ENKPSTCSFSIERILGLDWKKDCV [Q19W]  1.35
